Results as given in PMC2553845, “A Specificity Map for the PDZ Domain Family” (PLoS Biology, 2008).
Where no end group is shown, it is not given here.

Legend:
Assay in all cases: ELISA; competition ELISA as described in ref. 20: synthetic peptide in solution blocks PDZ domain binding to immobilized peptide; IC50 = peptide concentration that blocked 50% of binding; no detectable interaction = IC50 > 500 μM
Details in all cases: both partners purified
SCRIB PDZ domain 3 = target: T1, SCRIB PDZ domain 3 (human, UniProt Q14160 1004-1093)
T1 construct: also called SCRIB-3
T1 sequence (looked up): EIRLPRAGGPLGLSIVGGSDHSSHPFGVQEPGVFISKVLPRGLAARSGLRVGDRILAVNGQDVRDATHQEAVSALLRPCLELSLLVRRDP

SCRIB PDZ domain 1 = target: T2, SCRIB PDZ domain 1 (human, UniProt Q14160 728-815)
T2 construct: also called SCRIB-1

SCRIB PDZ domain 2 = target: T3, SCRIB PDZ domain 2 (human, UniProt Q14160 862-950)
T3 construct: also called SCRIB-2
T3 sequence (looked up): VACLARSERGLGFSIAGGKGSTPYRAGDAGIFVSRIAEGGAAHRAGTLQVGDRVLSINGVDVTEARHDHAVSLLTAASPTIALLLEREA

Measured: IC50

T2 sequence (Q14160 728-815): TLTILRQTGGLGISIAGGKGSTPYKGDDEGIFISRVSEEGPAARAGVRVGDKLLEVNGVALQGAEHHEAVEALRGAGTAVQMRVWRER

B1: designed nonbinding peptide Π–RSWFEAWA (peptide 15) (peptide)
chain: RQIKIWFQNRRMKWKKRSWFEAWA
modifications: not fully specified (C-terminus)
> 500 µM: all assays above
